Test: soluble on expression in E. coli; label from the status in PepcDB or PDB records

Question: Which “soluble on expression in E. coli” value does the source give for “MGHHHHHHHHHSSGHIDDDDKHMLEASAKATMGQGEQDHFVLKSGHAMPAVGLGTWRAGSDTAHSVRTAITEAGYRHVDTAAEYGVEKEVGKGLKAAMEAGIDRKDLFVTSKIWCTNLAPERVRPALENTLKDLQLDYIDLYHIHWPFRLKDGAHMPPEAGEVLEFDMEGVWKEMENLVKDGLVKDIGVCNYTVTKLNRLLRSAKIPPAVCQMEMHPGWKNDKIFEACKKHGIHITAYSPLGSSEKNLAHDPVVEKVANKLNKTPGQVLIKWALQRGTSVIPKSSKDERIKENIQVFGWEIPEEDFKVLCSIKDEKRVLTGEELFVNKTHGPYRSARDVWDHEN” here?
Answer: soluble

Question: For “MEKRELKVKTLSEVRDYEIPILKETVFDIFGGLPQAFIGISGEAGAGKTQTLMRLMADIAKREPVLVVLTEQSPHRWKAIFKKYDTNHENVRVVFKYYMDQDFIKELSQREERIIVIDSISGAVSEQKARQVAKDLRSLVEWKNKWLVGALQVRKEGVAGGEGVEHMIEVSYEITYFQLKPQNKWLYEKLKPFGYEVGDYVRLIRNTFDKVRGVQNTNLVVVDISKKNGILEFRELGRKEGEVNHE”, which “soluble on expression in E. coli” value is on record?
Answer: not soluble

Question: With “MSLTANREAIDMARVAAGAAAAKLADDVVVIDVSGQLVITDCFVIASGSNERQVNAIVDEVEEKMRQAGYRPARREGAREGRWTLLDYRDIVVHIQHQDDRNFYALDRLWGDCPVVPVDLSANSAGAQEGHHHHHH” as the sequence, how does the “soluble on expression in E. coli” value read?
Answer: soluble

Question: For “MPETELHVIFDQPNEVFFPGQPISGRVVLSTTEEKYKARAVNIKILGLAHTSWTDYDSVRRVDNDGNVRYDSESVHYSSNVHYLDQALLLWACKDGSNELSAGDYVWPFSYTLPLNVPPSFEGKYGYLRYSVTAEVDRPWRLDKAKRRCITVSPLIDLNAIPLALTPIDDEESENLGCCFFRKGYLELRVNIPKTGFVPGETVPMNIHILNHSSVPVTEVKAKIIQQCKFIAYRNGTIFRFDGGSDTLMSGSSQQTKYDTKPVITQTQPMTVTPGNEHKFVLEFRLPSVTPTICRFSPVITVEYVVQVRVETTSTCGSAAKCEMPILIGTVPIRNYLPPPIPNNYPIGLPPPYANLTDVNVPCPSGGSGTAVIPSAPPPSYQESMYGVGGTELRAEENEKPFAPKYPVFNNLPIYNPTAPPSE”, which “soluble on expression in E. coli” value is on record?
Answer: not soluble

Question: With “MENQPKLNSSKEVIAFLAERFPQCFSAEGEARPLKIGIFQDLVERVGGEMNLSKTQLRAALRLYTSSWRYLYGVKAGAIRVDLDGNPCGELEEQHIAHARQQLEEAKARVQAQRAAQQAKKREAAAAAGQQDEGVRRERKPRPQQPRRKEGAEQRKPRPVAAKAPREERLTPVSDVSVLTVGQALKVKAGNNAMDATVLEITKDGVRVQLTSGMSMIVRAEHLVF” as the sequence, how does the “soluble on expression in E. coli” value read?
Answer: not soluble

Question: With “MGSDKIHHHHHHVDKFLYIAMSGAKQNLNSLSIRANNLANANTDGFKADLEQSRSMQAFGEGLPTRVFAMTENPQASFRHGPINSTARDLDVAVKGDGWIAVEDADGNEAYTRAGSLKFDETGLLTNSQGRPVMGDAGPIVLPLPIDKVEIAQDGTITVRPQGATAEVVEEVARIKLVNPGNQNLMRGDDGLFRMMNGTTAPQDETVALESRAVEGSNVNPVEEMVALIDIQRQFELQVKMMKTAEENDKASAQLVRIG” as the sequence, how does the “soluble on expression in E. coli” value read?
Answer: not soluble

Question: With “MGSDKIHHHHHHQVSGDVVKIGILNDQSGLYADLAGAGSVQAARMAIEEFGGQVLGKKIELVWADHQNKADIGAGIARAWFDREGVDAIADFSNSSVGFAVQGLANERKKITLVAAGSSDFTGKACSPFSTQWVYNSYSNGYGLARLLASRGMDSVFLLTVDYTFGHAFANDVRKAVTENGGKVLGEVRFPLNSFDLSSYLLQAQASKAKLIVTAAAGSDMTSTVKQANEFGITPGQALAAPAVFITDVNSMGLQAAQGLQFVTAFYWDRTPDSRAWAEKFFARQKAMPSMTQAGVYSAVRHYLKAVEAAKTDDAVAVAAKMRELPVRDMNIENGRVREDGQVMHDMYLVEVKKPDESRRAWDYYKVLTTVPADQAFQALADSACPLVGKQ” as the sequence, how does the “soluble on expression in E. coli” value read?
Answer: not soluble

Question: With “MIVVFDAQCLLCSGFARFLLKHDRRGVLRFASMQGETGRALLRAADVDPEDVDTVLFVRDGRAWRESAAALRILHALGWPWRLAWLGWAVPLPIRDALYRCVARNRYRWFGCSDTCILPPPGAAQRFLDLEHHHHHH” as the sequence, how does the “soluble on expression in E. coli” value read?
Answer: not soluble

Question: For “WQFTPNTGGNTITKVEAENMKIGGTYAGKISAPFDGVALYANADYVSYSQYFANSTHNISVRGASSNAGTAKVDLVIGGVTVGSFNFTGKTPTVQTLSNITHATGDQEIKLALTSDDGTWDAYVDFIEFSL”, which “soluble on expression in E. coli” value is on record?
Answer: soluble

Question: With “LTSGNINIGNLKVGNDYPMRVLGEIVHVPWLSKEELEEKVNYYVESGADMIDLGMVSNEDYSKDLKQIIKTVRDITDKPVSVDTLNTKELIEAVNLDVDMILSVDSGNFDELLPYLKEKNTVSVVLPTNYKTNEVPKKISEKIQNMEKILEKFKENDLLAVADPILEPINNSGCNFTESVIACYEFKKRNNIPMFFGIGNVTELFDVDSNGVNASIAAIGQEIGGNILFTPEASKKCKFSIKELKTASKMLFLAKKRNSLP” as the sequence, how does the “soluble on expression in E. coli” value read?
Answer: not soluble

Question: For “MGSDKIHHHHHHMSIEFSRWPNNYMMSYQVTKALGLASLGATDVTEIYEACKKIDPNDKETWHREWLITAETLERHGKEAEAVGNWYTARNCYIRACNYNRIAEYTVMDDDNEKIRIFRKVNELFEAAGKYFDVKPEKIQVDYEDVKLDGYFFSPSWIKGPKPTILALNGGDEWSIENYFWLGPAFISCGYNFMVYDQPGTGLSMYEKGKGRRADSEAFHSRAIDFLLTRPEVDPNKIIVHGESFAAYDSLRFASFDHRIAAVISDGGTHAFDWEAMLKWMPPSLAGHGMRILGAKSLDDFAENPRFAYNLEGVLHQIECPLLVMHGAEEILVQPNPLTQALKNYEQAGSKNKTFFPIEDRRIGGLEHCQVDNINVLHEVVLNWLCSIGLGPFAPRPSDC”, which “soluble on expression in E. coli” value is on record?
Answer: not soluble

Question: For “MFNRGNTRVDVSSEPGTSGRYPERMIDQLPANYPCAKLKLDQFFLQWLSEHQDLVSTLVEDIQAGRPIHAPTAPVGPSPLSPSTAHMIFASTPPISPSKTRSPGTPLSPARRSTTTLGGSQKRGPLVSIPQFYFPTQSSNAGQGSDPATRDFLQRAEAAYKTDGGAAGLGQKAFVKMMQEVCELPSMVAYSLFKRLTGCEAGEEEGAAVPRDTFIKFWTGRGLVTAPPPKRAFDSLRPDGQDYLTFADFWPMMECVLRYHPGLEFLAETQEFQRKYAETVIHRIFYSLNKCGSGRLTFREFRSGELMDALYALDRENDINKILKFFSYEHFYVIYCKFWELDQDHDFQLDKTDLAHYSNCALSYVIVDRIFEEAPRKFKAGTPPGKMCYEDFVWFILSEEDKTTDTALTYWFRCVDLDGDGVIRPREMLYFYEEQLRRLEGWNQEPVQFEDLLCQLHDMLSPAKEGAFTLRDLKRTKPQSGLFFSSLFSLHKFVGFENRDPFAQRAEAAEFTGLSDWDKFAKIEYFRLASEDDQQDTAGGAMDTDEQI”, which “soluble on expression in E. coli” value is on record?
Answer: not soluble

Question: Which “soluble on expression in E. coli” value does the source give for “MRIWSSEHIFDHEWETVAQAAFRKYPNPLNRSITGIDVVKQTLEAGKILTERIIQSHFSIPSWATKLTGFSGTQYSHEYTVIDPTRKEFSLTTRNLNGSSFLRVDEKLTYTPAHEDPNKTILKQDVIVTITLPAFADYCEKTFLSIYSQNANKGRQGVEWVIDHLKKEYEAISTKVSSEVHEMSEKVLRSFGTTSSSSPKPSTPPPPST” here?
Answer: not soluble

Question: Which “soluble on expression in E. coli” value does the source give for “MGSDKIHHHHHHMSVGEAMDTEVRAAAQAVCLAFNENPEAVEPRVQAAIAAAAARINRYPFDAEPRVMRKLAEHFSCPEDNLMLVRGIDECFDRISAEFSSMRFVTAWPGFDGYRARIAVSGLRHFEIGLTDDLLLDPNDLAQVSRDDCVVLANPSNPTGQALSAGELDQLRQRAGKLLIDETYVDYSSFRARGLAYGENELVFRSFSKSYGLAGLRLGALFGPSELIAAMKRKQWFCNVGTLDLHALEAALDNDRAREAHIAKTLAQRRRVADALRGLGYRVASSEANFVLVENAAGERTLRFLRERGIQVKDAGQFGLHHHIRISIGREEDNDRLLAALAEYSDHS” here?
Answer: not soluble

Question: With “MNLASVLLLLAACHLSVSVNGQEHKEAIELSMANHDHVLGSAQVVFVAFCADWCPFSRRLKPIFEESARVFHQENPQASAVWAIVDSQRQADIGDKYFVNKYPTMKVFVNGELITKEYRSTRSVEALTNFVKFQLSTAINEFSSQDQLNQEMDKSKRNVVAWLKKDGPEFANLKKVASILREDCSFWVPTDHFGTQTNDNKLSFFDPDSNEEAKFTGNFNDYDFVKQWVTDKCIPLVREVTFENVEELTEEGMPFLIYFRDPDNKTTDKVFGEAVARELYDQRSAINPLLADGHKFAHPLKHLGKTKEDLPVLAIDSFQHMYLFPDMTQMNIPGKLREFVMDLHSGKLHKDFHENLDQRMIELAKAKAARGITDDHEAQAPSTRPIDTTPPPSVFKELKPSDKRYSILQKSEL” as the sequence, how does the “soluble on expression in E. coli” value read?
Answer: not soluble

Question: Which “soluble on expression in E. coli” value does the source give for “MPPLRQFLNRLLALTIRMQNVIFERFELLLSQQIETAIANGIFEAGVETLRAERFTIESCESVYTHPDTGSVTNYLKVEQVQRNNIRTAVEMLEFAAKYQGQLMVNQKSSNAAVSIPTHSIFDCDGGVVPRVLLVRPQKETRVPVEQLESSTWQQVSAEEFVTAWSREVDELPRFTTDYLHLVTGILLPIWKILPQKNSRVFRLQTSDGQKILGRVVHASDIQTVTEQLGLKNKLEHHHHHH” here?
Answer: soluble

Question: With “MELDVFVGNTTVLDEDIYQLWLDGHSVSDVVRQRMDAGVLLECEASPDVLQSDTIDQFRTFQMCERLLQSPSKVANQLLFQIPSDQQAMLIERYYEFDSVFAREVLGKKLSKGTKKDLDDVSAKTGIALKSCRRQFDNFKRVFKVVEELKGPLVENIQRHFLLSDDLARDYATIVFFANSRFETGKRKLQYLSFQDFAFCAGQLISYWTVGAVDNMIEDMDVDLEKDFLHDLKDLKVLVNDKDLLDQHKSLVCGQLRGKIKVFNEMEASFKNLSRALVNIASKLTHAKDVRDLFIDLVEKFIEPCRSDKWTSGDLRLFLTHYSTSVHTLEAFRHQVIWDRYMGVIKSCILKMYHD” as the sequence, how does the “soluble on expression in E. coli” value read?
Answer: soluble

Question: For “MSLEVGFAPAEFTVTDKDGRKVFLSDYKGKYVLIYHWGLCPGTFWVNPKITDLYQKYHEKGLEVLGFTRDDLLKSLQGSSEEFKKDERVQGLLSHPWTTVYTEDEGNGFIVKDLYFSGVPILMLISPDGITLARGYTKAYEEVKNLLDRNLGNKEGHHHHHH”, which “soluble on expression in E. coli” value is on record?
Answer: soluble

Question: For “MRHPDFPVPPRIDAFASWEASLRLAFARRGGRTVLASCRHRGPLRVQKALYPEGEGVCHVVLLHPPAGIAGGDVLDIGIELGAEAHAVLTTPGATKWYKSPGRTAMQQVAIRLDAGARLDWLPQENIVFNQARPVIDLTLDLAPGAAAIGWDITMLGRHAAGESWQEGRIAMHTRLRCEGQPLWIESTAFDAQSPVLGATTGMAGFHVVGTLWAVGAGATEALAETLAEQLPYRDDLRAGVTCLTQDAPGRPSVLLLRVLARRPEDARALLSQTWLALREPIHGVAGRPLRLWATLEHHHHHH”, which “soluble on expression in E. coli” value is on record?
Answer: not soluble

Question: Which “soluble on expression in E. coli” value does the source give for “GSHMNIITVTLNMEKYNFLGISIVGQSNERGDGGIYIGSIMKGGAVAADGRIEPGDMLLQVNDMNFENMSNDDAVRVLRDIVHKPGPIVLTVAKSGGGGEIVLWSDIP” here?
Answer: soluble

Question: Which “soluble on expression in E. coli” value does the source give for “MIRKATWADAPAIASVHVESWKTTYSGIVPDAYLETLSVGEKQPLWEKVLSQSGHSVFVAEENGRVVGFVSGGPNRAADGPIAKYDGELYAIYLLKEVQGKGLGRQLVQALTRHLAQKGIHSLVVWVLADNPSRGFYERLGGEKVAEERVEIGGKALWEWCYELARRPIDGTVGGLPNRAAA” here?
Answer: not soluble

Question: For “MAHHHHHHMENIENIENIEKIHLTDDGGVIKTILRKGNEGEENVPKKGNEVTVHYIGKLESDGSIFDSSRQRDVPFKFHLGNGEVIKGWDICVASMKKNEKCLVRLDSKYGYGKEGCGETIPGNSVLIFEIELLSFKEAKKNIYDYTDEEKIQAAFELKDEGNEFFKKNEINEAIAKYKEALDYFMHTDEWEDELLEKKKNIQIICNLNLSTCYNKNKDYPNAIEHASKVLKLDKNNVKGLYKLGVANMNFGFLEEAKINLYKAASLNPKNLDIRNSYELCIAKLKEARKKDQITFG”, which “soluble on expression in E. coli” value is on record?
Answer: soluble

Source: the DeepSol protein solubility set
